Laboratory results as given in patent US20130078251A1 (Hoffmann-La Roche, published 2013).
Numbering of substitutions follows the chain as printed.

Assays:
[1] = biological target: T1, Construct 1, CSPG repeat 15 of human MCSP with the original transmembrane region (human, UniProt Q6UVK1 2044-2246); experiment: FACS titration on HEK-EBNA cells transfected with the construct
T1 construct: Expressed on HEK-EBNA cells; also called construct including only the MCSP repeat 15 and the natural transmembrane domain
T1 sequence: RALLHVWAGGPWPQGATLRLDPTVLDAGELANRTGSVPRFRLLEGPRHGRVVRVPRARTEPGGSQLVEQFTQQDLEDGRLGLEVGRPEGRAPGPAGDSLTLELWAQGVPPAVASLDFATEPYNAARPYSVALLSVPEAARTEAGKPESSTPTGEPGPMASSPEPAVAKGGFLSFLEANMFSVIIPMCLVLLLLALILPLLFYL

[2] = biological target: T2, Construct 4, CSPG repeat 12-15 of human MCSP with the original transmembrane region (human, UniProt Q6UVK1 1702-2246); experiment: as above
T2 construct: Expressed on HEK-EBNA cells
T2 sequence: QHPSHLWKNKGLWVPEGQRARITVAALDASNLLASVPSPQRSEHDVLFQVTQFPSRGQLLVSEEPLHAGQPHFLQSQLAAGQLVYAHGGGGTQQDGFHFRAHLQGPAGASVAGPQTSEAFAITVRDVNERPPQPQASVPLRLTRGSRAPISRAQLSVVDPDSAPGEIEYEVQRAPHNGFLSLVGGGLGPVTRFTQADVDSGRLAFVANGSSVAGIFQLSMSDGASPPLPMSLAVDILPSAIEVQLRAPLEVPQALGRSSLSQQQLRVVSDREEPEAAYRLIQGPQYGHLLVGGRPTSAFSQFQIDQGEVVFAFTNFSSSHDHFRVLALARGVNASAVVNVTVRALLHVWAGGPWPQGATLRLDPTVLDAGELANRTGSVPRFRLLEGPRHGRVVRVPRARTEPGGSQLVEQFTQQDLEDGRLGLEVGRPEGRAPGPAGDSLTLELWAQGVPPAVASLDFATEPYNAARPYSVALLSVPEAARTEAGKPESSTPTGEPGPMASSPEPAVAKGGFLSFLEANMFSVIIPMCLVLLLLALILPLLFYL

[3] = biological target: T3, recombinant D3 domain of MCSP (UniProt Q6UVK1 1582-2224, limits assumed); experiment: Biacore T100, antibody amine-coupled on CM5 chip, MCSP D3 as analyte, 1:1 model, 25 °C
T3 construct: domain: D3 domain; also called MCSP D3
T3 sequence (looked up): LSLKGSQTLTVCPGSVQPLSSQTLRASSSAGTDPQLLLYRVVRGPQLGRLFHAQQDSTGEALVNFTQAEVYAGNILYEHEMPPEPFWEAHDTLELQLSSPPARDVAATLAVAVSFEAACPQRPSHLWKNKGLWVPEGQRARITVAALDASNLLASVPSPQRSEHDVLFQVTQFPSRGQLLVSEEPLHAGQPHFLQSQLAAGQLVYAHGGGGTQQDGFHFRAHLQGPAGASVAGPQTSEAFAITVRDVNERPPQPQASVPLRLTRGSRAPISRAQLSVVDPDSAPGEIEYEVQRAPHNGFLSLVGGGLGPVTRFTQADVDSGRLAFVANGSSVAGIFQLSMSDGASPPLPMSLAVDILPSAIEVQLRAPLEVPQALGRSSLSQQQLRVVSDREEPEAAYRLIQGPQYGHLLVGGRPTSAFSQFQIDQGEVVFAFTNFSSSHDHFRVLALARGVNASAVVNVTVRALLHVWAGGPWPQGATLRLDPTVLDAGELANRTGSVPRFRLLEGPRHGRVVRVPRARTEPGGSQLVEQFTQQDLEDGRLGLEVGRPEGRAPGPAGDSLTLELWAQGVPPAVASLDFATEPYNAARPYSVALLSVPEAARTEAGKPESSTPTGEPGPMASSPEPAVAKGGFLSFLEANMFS
Description: (§1) The monovalent binding affinities for the chimeric LC007 and the humanized variant M4-3 ML2 were determined using a Biacore assay. Briefly, the antibodies were chemically immobilized on a CM5 chip (Biacore) via amine-coupling (activation with EDC-NHS, coupling of 5000 RU for each antibody, deactivation with ethanolamine). The recombinant D3 domain of MCSP was used as analyte. The experiment was performed at 25° and 37° in HBS-EP+ running buffer on a Biacore T100. […] The surface was regenerated between injections with 10 mM glycine pH 2 for 30 s. The sensorgrams were fitted with the 1:1 binding model (with RI=0 and Rmax=local) to determine the Kd.

[4] = biological target: T3, recombinant D3 domain of MCSP; experiment: Biacore T100, antibody amine-coupled on CM5 chip, MCSP D3 as analyte, 1:1 model, 37 °C
Description: as §1

[5] = biological target: T4, human MCSP (melanoma chondroitin sulfate proteoglycan) on melanoma cells (human, UniProt Q6UVK1 30-2322); experiment: FACS titration on A375 melanoma cells, FITC anti-human IgG Fc secondary antibody
T4 construct: Endogenous MCSP of human melanoma cell lines; also called surface MCSP; native form of MCSP
Description: (§2) Binding activity was determined by the following method. Target cells were detached from culture flask with cell dissociation buffer, counted and checked for viability. Cells were resuspended and adjusted to 1.111×10⁶ (viable) cells/ml in PBS-0.1% BSA. 180 μl of this suspension were transferred to each well (200,000 cells/well) in a round bottom 96-well-plate, centrifuged for 4 min, at 400 g, and resuspended. 20 μl of antibody dilutions in PBS-0.1% BSA (from 10 μg/ml to 0.002 μg/ml) were added to each well. The samples were centrifuged for 4 min, at 400 g, and resuspended. Secondary antibody, FITC-conjugated AffiniPure F(ab′)2 fragment goat anti-human IgG Fcg Fragment Specific (Jackson Immuno Research Lab #109-096-098)), was added and the sample centrifuged for 4 min, at 400 g, and resuspended. Fluorescence was measured in flow cytometer (e.g. FACS Canto II). Antibody 9.2.27, described in Morgan A C Jr, Galloway D R, Reisfeld R A. Hybridoma. 1981; 1(1):27-36.; GenBank Accession Numbers: GI:20797193 and GI:20797189 for light and heavy chain respectively, was used as a reference (FIG. 2). Human melanoma cell-lines Colo38, A2058, and A375 were used. Giacomini et al. 1985 (for Colo38). Marquardt H, Todaro G J. J Biol Chem. 1982 May 10; 257(9):5220-5 (for A2058). Geiser M, Schultz D, Le Cardinal A, Voshol H, García-Echeverría C. Cancer Res. 1999 Feb. 15; 59(4):905-10 (for A375).

[6] = biological target: T4, human MCSP (melanoma chondroitin …); experiment: FACS titration on A2058 melanoma cells, FITC anti-human IgG Fc secondary antibody
Description: as §2

[7] = biological target: T4, human MCSP (melanoma chondroitin …); experiment: FACS titration on Colo38 melanoma cells, FITC anti-human IgG Fc secondary antibody
Description: as §2

[8] = biological target: T5, cynomolgus MCSP D3 domain expression construct (cynomolgus, UniProt Q6UVK1 1582-2224 (human entry), limits assumed); experiment: flow cytometry titration on HEK-EBNA cells electroporated with the FLAG-tagged D3 domain construct
T5 construct: also called cynomolgus construct; cynomolgus antigen
T5 chain: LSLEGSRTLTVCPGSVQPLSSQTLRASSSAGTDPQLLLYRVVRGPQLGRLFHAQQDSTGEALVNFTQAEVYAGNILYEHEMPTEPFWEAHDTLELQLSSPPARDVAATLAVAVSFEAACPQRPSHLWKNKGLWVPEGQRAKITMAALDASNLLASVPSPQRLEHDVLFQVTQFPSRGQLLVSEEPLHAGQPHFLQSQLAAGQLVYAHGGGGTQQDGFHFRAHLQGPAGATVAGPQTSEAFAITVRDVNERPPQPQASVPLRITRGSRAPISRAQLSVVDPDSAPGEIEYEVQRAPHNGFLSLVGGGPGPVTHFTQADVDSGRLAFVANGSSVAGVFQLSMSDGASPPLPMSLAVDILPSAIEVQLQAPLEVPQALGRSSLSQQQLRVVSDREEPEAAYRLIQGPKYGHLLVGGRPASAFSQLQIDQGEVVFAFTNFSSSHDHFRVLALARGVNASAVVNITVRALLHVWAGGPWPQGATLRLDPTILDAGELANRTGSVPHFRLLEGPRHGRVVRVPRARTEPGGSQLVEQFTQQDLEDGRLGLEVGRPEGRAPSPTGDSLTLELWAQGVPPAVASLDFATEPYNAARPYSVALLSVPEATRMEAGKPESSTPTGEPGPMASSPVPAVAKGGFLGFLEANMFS
Text: (§3) An expression construct was generated that included the C-terminal part of the cynomolgus MCSP protein, a signal peptide for secretion and a N-terminal FLAG-tag (SEQ ID NO: 8) to test for crossreactivity towards the cynomolgus antigen. This domain was referred to as the D3 domain Tillet, F. et. Al, J. Biol. Chem. 272: 10769-10776 (1997). A similar construct was done for the human counterpart (SEQ ID NO: 9). An expression plasmid encoding for these two construct was electroporated into HEK-EBNA cells, and expression was confirmed with an anti-FLAG antibody. Binding of LC007 antibody was then tested by flow cytometry.

[9] = biological target: T6, human MCSP D3 domain expression construct (human, UniProt Q6UVK1 1582-2224, limits assumed); experiment: as above
T6 construct: Built like the cynomolgus construct (signal peptide, N-terminal FLAG-tag); also called corresponding human expression construct; human counterpart
T6 sequence: T3 sequence (looked up) with R122H
Text: as §3

T4 sequence (Q6UVK1 30-2322 limits assumed): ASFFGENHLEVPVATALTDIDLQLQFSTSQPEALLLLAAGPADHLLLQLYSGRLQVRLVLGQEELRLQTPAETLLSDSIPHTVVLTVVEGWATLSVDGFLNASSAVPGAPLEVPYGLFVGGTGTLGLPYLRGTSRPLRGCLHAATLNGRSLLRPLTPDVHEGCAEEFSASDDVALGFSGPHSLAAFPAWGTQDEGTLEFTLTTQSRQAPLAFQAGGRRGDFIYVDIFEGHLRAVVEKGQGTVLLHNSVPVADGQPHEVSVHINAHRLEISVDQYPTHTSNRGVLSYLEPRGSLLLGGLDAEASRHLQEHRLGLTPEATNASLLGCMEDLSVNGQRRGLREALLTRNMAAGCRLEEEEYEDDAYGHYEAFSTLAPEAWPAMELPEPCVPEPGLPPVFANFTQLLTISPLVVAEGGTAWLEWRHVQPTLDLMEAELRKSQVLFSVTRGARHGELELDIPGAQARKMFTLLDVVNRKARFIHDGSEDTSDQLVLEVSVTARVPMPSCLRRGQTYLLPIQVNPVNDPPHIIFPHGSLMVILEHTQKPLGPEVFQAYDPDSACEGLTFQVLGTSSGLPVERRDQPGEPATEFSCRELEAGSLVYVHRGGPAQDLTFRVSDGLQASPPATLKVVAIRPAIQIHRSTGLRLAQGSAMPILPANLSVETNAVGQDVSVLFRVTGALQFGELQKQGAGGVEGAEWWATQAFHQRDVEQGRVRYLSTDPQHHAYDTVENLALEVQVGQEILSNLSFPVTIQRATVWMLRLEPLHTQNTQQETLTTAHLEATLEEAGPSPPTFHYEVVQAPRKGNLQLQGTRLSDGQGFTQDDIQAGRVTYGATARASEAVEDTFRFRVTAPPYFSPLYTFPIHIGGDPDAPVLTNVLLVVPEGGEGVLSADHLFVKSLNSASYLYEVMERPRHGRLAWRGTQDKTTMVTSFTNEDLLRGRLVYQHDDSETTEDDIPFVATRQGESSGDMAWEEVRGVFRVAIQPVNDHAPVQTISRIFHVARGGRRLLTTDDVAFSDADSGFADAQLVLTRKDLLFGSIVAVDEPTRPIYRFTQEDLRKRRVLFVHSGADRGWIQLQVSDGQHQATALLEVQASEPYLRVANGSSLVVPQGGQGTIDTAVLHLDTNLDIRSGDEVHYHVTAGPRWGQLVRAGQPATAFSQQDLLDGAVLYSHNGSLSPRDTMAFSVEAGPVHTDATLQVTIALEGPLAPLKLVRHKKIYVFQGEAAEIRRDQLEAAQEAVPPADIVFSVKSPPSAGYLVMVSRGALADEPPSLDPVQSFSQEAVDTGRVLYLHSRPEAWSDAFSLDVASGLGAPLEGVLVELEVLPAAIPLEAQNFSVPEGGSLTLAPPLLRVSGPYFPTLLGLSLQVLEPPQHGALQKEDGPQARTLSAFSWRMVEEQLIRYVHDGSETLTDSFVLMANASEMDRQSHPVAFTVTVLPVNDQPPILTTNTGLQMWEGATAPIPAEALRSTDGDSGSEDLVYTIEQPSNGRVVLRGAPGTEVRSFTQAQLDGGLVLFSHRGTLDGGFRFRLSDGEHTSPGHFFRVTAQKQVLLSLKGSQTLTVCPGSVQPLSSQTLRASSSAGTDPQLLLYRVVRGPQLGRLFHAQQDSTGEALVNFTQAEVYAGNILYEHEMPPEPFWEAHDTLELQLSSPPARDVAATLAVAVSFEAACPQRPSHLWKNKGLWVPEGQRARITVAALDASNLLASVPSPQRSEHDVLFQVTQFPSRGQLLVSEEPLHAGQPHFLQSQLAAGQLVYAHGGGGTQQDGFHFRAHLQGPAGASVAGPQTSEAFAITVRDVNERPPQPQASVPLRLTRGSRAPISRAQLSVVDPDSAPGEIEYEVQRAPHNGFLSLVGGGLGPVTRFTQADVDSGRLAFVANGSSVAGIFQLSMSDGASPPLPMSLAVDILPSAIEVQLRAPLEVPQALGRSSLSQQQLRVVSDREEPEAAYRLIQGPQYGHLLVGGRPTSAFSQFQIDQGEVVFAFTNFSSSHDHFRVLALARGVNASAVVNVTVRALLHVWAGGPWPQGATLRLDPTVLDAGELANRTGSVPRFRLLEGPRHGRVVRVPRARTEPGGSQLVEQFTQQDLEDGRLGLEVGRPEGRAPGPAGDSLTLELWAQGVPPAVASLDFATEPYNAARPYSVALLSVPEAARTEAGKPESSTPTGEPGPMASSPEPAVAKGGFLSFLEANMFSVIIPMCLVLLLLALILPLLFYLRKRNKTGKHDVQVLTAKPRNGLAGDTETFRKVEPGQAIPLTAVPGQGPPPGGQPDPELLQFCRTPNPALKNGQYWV

B1: chimeric antibody LC007 (antibody, human IgG1, kappa, V domains shown)
VH: EVQLQESGPGLVKPSQSLSLTCSVTGYSITSGYYWNWIRQFPGNKLEWMGYITYDGSNNYNPSLKNRISITRDTSKNQFFLKLNSVTTEDTATYYCADFDYWGQGTTLTVSS
VL: DIVLTQSPSSLSASLGDRVTISCSASQGIRNYLNWYQQRPDGTVKLLIYYTSSLHSGVPSRFSGSGSGTDYSLTISNLEPEDIATYYCQQYSKLPWTFGGGTKLEIKR
notes: also called LC007 antibody; chimeric LC007
- binding result [1]: no binding (tested: 5 ug/ml)
- EC50 (read off the curve) [2]: ~0.3 µg/mL
- Kd [3]: 9.8 nM
- Kd [4]: 10.8 nM
- EC50 (read off the curve) [5]: ~0.05 µg/mL
- EC50 (read off the curve) [6]: ~0.03 µg/mL
- EC50 (read off the curve) [7]: ~0.05 µg/mL
- EC50 (read off the curve) [8]: ~0.1 µg/mL
- EC50 (read off the curve) [9]: ~0.08 µg/mL

B2: humanized variant M4-3 ML2 (antibody, human IgG1, kappa, V domains shown)
VH: QVQLQESGPGLVKPSQTLSLTCTVSGGSITSGYYWNWIRQHPGKGLEWIGYITYDGSNNYNPSLKSRVTISRDTSKNQFSLKLSSVTAADTAVYYCADFDYWGQGTLVTVSS
VL: DIQMTQSPSSLSASVGDRVTITCRASQGIRNYLNWYQQKPGKAPKLLIYYTSSLHSGVPSRFSGSGSGTDFTLTISSLQPEDFATYYCQQYSKLPWTFGQGTKVEIKR
notes: also called M4-3 ML2 antibody
- Kd [3]: 11.4 nM
- Kd [4]: 16.6 nM
